{"source": "paper PMC7192624", "substrate": "Nc1nc2c(ncn2[C@@H]2O[C@H](COP(=O)(O)OP(=O)(O)OP(=O)(O)O)[C@@H](O)[C@H]2O)c(=O)[nH]1", "test": "purified protein", "assay_type": "biochemical, Saccharomyces cerevisiae", "details": "pH 8.0, 300 mM NaCl, 5 mM MgCl2, 30°C, labelled compound, Snu114 without Prp8"}
{"protein": "Snu114^72-1008 (isolated) (Saccharomyces cerevisiae S288C) (protein, residues 72-1008 (acidic N-terminal region truncated), C-terminal Strep tag (pIDS-C-Strep), synthetic gene, recombinant in insect cells (MultiBac)) KEVEVLMETKNTQSPQTPLVEPVTERTKLQEHTIFTQLKKNIPKTRYNRDYMLSMANIPERIINVGVIGPLHSGKTSLMDLLVIDSHKRIPDMSKNVELGWKPLRYLDNLKQEIDRGLSIKLNGSTLLCTDLESKSRMINFLDAPGHVNFMDETAVALAASDLVLIVIDVVEGVTFVVEQLIKQSIKNNVAMCFVINKLDRLILDLKLPPMDAYLKLNHIIANINSFTKGNVFSPIDNNIIFASTKLGFTFTIKEFVSYYYAHSIPSSKIDDFTTRLWGSVYYHKGNFRTKPFENVEKYPTFVEFILIPLYKIFSYALSMEKDKLKNLLRSNFRVNLSQEALQYDPQPFLKHVLQLIFRQQTGLVDAITRCYQPFELFDNKTAHLSIPGKSTPEGTLWAHVLKTVDYGGAEWSLVRIYSGLLKRGDTVRILDTSQSESRQKRQLHDISKTETSNEDEDEDDETPSCEVEEIGLLGGRYVYPVHEAHKGQIVLIKGISSAYIKSATLYSVKSKEDMKQLKFFKPLDYITEAVFKIVLQPLLPRELPKLLDALNKISKYYPGVIIKVEESGEHVILGNGELYMDCLLYDLRASYAKIEIKISDPLTVFSESCSNESFASIPVSNSISRLGEENLPGLSISVAAEPMDSKMIQDLSRNTLGKGQNCLDIDGIMDNPRKLSKILRTEYGWDSLASRNVWSFYNGNVLINDTLPDEISPELLSKYKEQIIQGFYWAVKEGPLAEEPIYGVQYKLLSISVPSDVNIDVMKSQIIPLMKKACYVGLLTAIPILLEPIYEVDITVHAPLLPIVEELMKKRRGSRIYKTIKVAGTPLLEVRGQVPVIESAGFETDLRLSTNGLGMCQLYFWHKIWRKVPGDVLDKDAFIPKLKPAPINSLSRDFVMKTRRRKGISTGGFMSNDGPTLEKYISAELYAQLRENGLVP", "values": [{"measurement": "Km", "result": 578.4, "unit": "µM"}, {"measurement": "kcat", "result": 0.001012, "unit": "s⁻¹"}]}
